In paper PMC8271855:

Biological target: Recombinant green fluorescent protein (CopGFP, amplified from the pTurboGFP plasmid)
Assay: SEC

stoichiometry N: 2
Substance: Recombinant green fluorescent protein (CopGFP, amplified from the pTurboGFP plasmid) (natural protein)
